Data on 4 molecules can be found in publication PMC8238635.

Data set [1] addresses T1, Nsp8 (SARS-CoV-2 (taxid 2697049), UniProt P0DTD1 3943-4140). The experiment in a line: SEC-MALS-SAXS; 1:1 complex, high affinity. The settings on record: protein: recombinant; tags: N-terminal His6-TEV, cleaved; label: 32P in EMSA; none in SEC; single strand.
Data set [2] has as its target T1, Nsp8. The experiment in a line: SEC-MALS-SAXS. The settings on record: protein: recombinant; tags: N-terminal His6-TEV, cleaved. (SEC sorts molecules by how far they enter the pores of the column.)
The target in data set [3] is Nsp8;Nsp12 (RdRp) (SARS-CoV-2 (taxid 2697049);SARS-CoV-2 …, UniProt P0DTD1;P0DTD1 3943-4140;4393-5324, |). The experiment in a line: SEC-MALS-SAXS; excess RNA; low or nonexistent binding. The settings on record: protein: recombinant;recombinant, tags: N-terminal His6-TEV, cleaved;N-terminal His6-TEV, copies: 1;1.
Data set [4] has as its target T1, Nsp8. In words: EMSA; split bands. To be noted: protein: recombinant, tags: N-terminal His6-TEV, cleaved, single strand. (A gel shift assay detects complexes by their altered migration in electrophoresis.)

For UUUUCAUGCUACGCGUAGCAUGCUACGCGUAGCAUG (ssRNA) [long ssRNA (36 bases)], the binding result in data set [1] is on record as “binds”.

B1: dsRNA (long ssRNA paired to short ssRNA) (dsRNA)
RNA 1: UUUUCAUGCUACGCGUAGCAUGCUACGCGUAGCAUG
RNA 2: CAUGCUACGCGUAGCAUGCUACGCGUAG
B1: the results for the binding result in data set [2] and in data set [3] were “binds” and “no binding”, respectively.
Take CAUGCUACGCGUAGCAUGCUACGCGUAGCAUG (ssRNA) [long ssRNA without poly-U 5' end]: the binding result in data set [4] (label: 32P) is “binds”.
In the case of CAUGCUACGCGUAGCAUGCUACGCGUAG (ssRNA) [short ssRNA (28 bases)], the binding result in data set [4] (label: 32P in EMSA, none in SEC) is recorded as “binds”.
